In US20220259318A1 (Hoffmann-La Roche, published 2022):

What was measured:
human GPRC5D [1] = molecular target: T1, human GPRC5D (human, UniProt Q9NZD1 1-345); experiment: cell-based or functional assay
human GPRC5D [2] = molecular target: T1, human GPRC5D; experiment: cell-based or functional assay; remark: listed apart in the source
human GPRC5D [3] = molecular target: T1, human GPRC5D; experiment: cell-based or functional assay; remark: listed apart in the source
human GPRC5D [4] = molecular target: T1, human GPRC5D; experiment: flow cytometry on NCI-H929 cells; paragraph 550 says these values were falsely calculated by a factor of 10 (too low)
Experimental: (§1) To measure the binding to GPRC5D, we performed a flow cytometry-based binding assay on reported multiple myeloma cell lines (Lombardi et al., Molecular characterization of human multiple myeloma cell lines by integrative genomics: insights into the biology of the disease; Genes Chromosomes Cancer. 2007 March; 46(3):226-38). The cell line NCI-H929 (ATCC® CRL-9068) was cultured in RPMI 1640 with Glutamax medium (Gibco) supplemented with 10% FBS, 1× Penicillin/Streptomycin (Gibco), 1× Sodium Pyruvate (Gibco) and 50 μM beta-Mercaptoethanol (Gibco). Jurkat-NFAT reporter cells (a CD3-expressing human acute lymphatic leukemia reporter cell line with a NFAT promoter, GloResponse Jurkat NFAT-RE-luc2P, Promega #CS176501) were cultured in RPMI 1640, containing 2 g/l Glucose, 2 g/l NaHCO₃, 10% FCS, 25 mM HEPES, 2 mM L-Glutamine, 1×NEAA, 1× Sodium-pyruvate and 200 μg/ml Hygromycin B.
(§2) Flow cytometry acquisition was performed on a custom-designed BD Biosciences Fortessa and analyzed using BD Diva. EC50 values were calculated, using GraphPad Prism software.

human CD3 = molecular target: T2, human CD3 (human, UniProt P07766 23-207); experiment: flow cytometry on Jurkat-NFAT cells; paragraph 550 says these values were falsely calculated by a factor of 10 (too low)
T2 construct: Expressed on Jurkat-NFAT reporter cells as part of the TCR/CD3 complex; also called hCD3; CD3 epsilon
Experimental: as §1, §2

T1 sequence (Q9NZD1 whole entry): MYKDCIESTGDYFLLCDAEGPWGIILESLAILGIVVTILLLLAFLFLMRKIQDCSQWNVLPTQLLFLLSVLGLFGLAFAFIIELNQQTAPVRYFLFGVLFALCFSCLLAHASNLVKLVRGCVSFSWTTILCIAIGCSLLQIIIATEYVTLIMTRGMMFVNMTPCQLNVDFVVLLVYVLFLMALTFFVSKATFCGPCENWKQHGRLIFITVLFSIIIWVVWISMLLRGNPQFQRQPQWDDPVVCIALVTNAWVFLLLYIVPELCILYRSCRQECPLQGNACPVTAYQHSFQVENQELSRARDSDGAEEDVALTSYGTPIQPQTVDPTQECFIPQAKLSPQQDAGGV
T2 sequence (P07766 23-207 limits assumed): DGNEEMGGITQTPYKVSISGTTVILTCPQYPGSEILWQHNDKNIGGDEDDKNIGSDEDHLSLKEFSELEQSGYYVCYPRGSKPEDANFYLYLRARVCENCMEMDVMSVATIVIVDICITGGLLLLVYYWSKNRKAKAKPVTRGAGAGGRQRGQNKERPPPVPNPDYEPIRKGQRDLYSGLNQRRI

Binder	EC50 of anti-GPRC5D-TCB mediated killing, AMO-1 (human GPRC5D [1]) [pM]	EC50 of anti-GPRC5D-TCB mediated killing, L363 (human GPRC5D [1]) [pM]	EC50 of anti-GPRC5D-TCB mediated killing, NCI-H929 (human GPRC5D [1]) [pM]	EC50 of anti-GPRC5D-TCB mediated killing, RPMI-8226 (human GPRC5D [1]) [pM]	EC50 in vitro killing assay, AMO-1 (human GPRC5D [2]) [pM]	EC50 in vitro killing assay, EJM (human GPRC5D [2]) [pM]	EC50 in vitro killing assay, L363 (human GPRC5D [2]) [pM]	EC50 in vitro killing assay, MOLP-2 (human GPRC5D [2]) [pM]	EC50 in vitro killing assay, NCI-H929 (human GPRC5D [2]) [pM]	EC50 in vitro killing assay, OPM-2 (human GPRC5D [2]) [pM]	EC50 in vitro killing assay, RPMI (human GPRC5D [2]) [pM]	AUC, activation of Jurkat-NFAT reporter cells in presence of RPMI-8226 cells (human GPRC5D [3])	EC50 (pM), activation of Jurkat-NFAT reporter cells in presence of RPMI-8226 cells (human GPRC5D [3]) [pM]	EC50 (human GPRC5D [4]) [pM]	EC50 (human CD3) [pM]
5E11-TCB (bispecific antibody, human IgG1, kappa, L234A L235A, 2+1 anti-GPRC5D/anti-CD3 T cell bispecific: LC1 (GPRC5D), LC2 (CD3 crossed VH-CL), HC hole, HC knob; also called 5E11p-CH2527) light 1: DIVLTQSPALAVSPGQRATISCRASQSVSISGINLMNWYQQKPGQQPKLLIYHASILASGIPTRFSGSGSGTDFTLTIDPVQADDIATYYCQQTRESPLTFGSGTNLEIKRTVAAPSVFIFPPSDRKLKSGTASVVCLLNNFYPREAKVQWKVDNALQSGNSQESVTEQDSKDSTYSLSSTLTLSKADYEKHKVYACEVTHQGLSSPVTKSFNRGEC light 2: EVQLLESGGGLVQPGGSLRLSCAASGFTFSTYAMNWVRQAPGKGLEWVSRIRSKYNNYATYYADSVKGRFTISRDDSKNTLYLQMNSLRAEDTAVYYCVRHGNFGNSYVSWFAYWGQGTLVTVSSASVAAPSVFIFPPSDEQLKSGTASVVCLLNNFYPREAKVQWKVDNALQSGNSQESVTEQDSKDSTYSLSSTLTLSKADYEKHKVYACEVTHQGLSSPVTKSFNRGEC heavy 1: ELQLEQSGGGLVQPGGSLTLSCAASGFTFSKYAMAWVRQAPTKGLEWVASISTGGVNTYYRDSVKARFTISRDNAKNTQYLQMDSLRSEDTATYYCATHTGDYFDYWGQGVMVTVSSASTKGPSVFPLAPSSKSTSGGTAALGCLVEDYFPEPVTVSWNSGALTSGVHTFPAVLQSSGLYSLSSVVTVPSSSLGTQTYICNVNHKPSNTKVDEKVEPKSCDKTHTCPPCPAPEAAGGPSVFLFPPKPKDTLMISRTPEVTCVVVDVSHEDPEVKFNWYVDGVEVHNAKTKPREEQYNSTYRVVSVLTVLHQDWLNGKEYKCKVSNKALGAPIEKTISKAKGQPREPQVCTLPPSRDELTKNQVSLSCAVKGFYPSDIAVEWESNGQPENNYKTTPPVLDSDGSFFLVSKLTVDKSRWQQGNVFSCSVMHEALHNHYTQKSLSLSPGK heavy 2: not shown	14	12	7	24	8	11	17	18	7	2	64	265000	157	3360	3670
5F11(VH1b + VL2a)-C122-TCB (P1AE6623) (bispecific antibody, human IgG1, kappa, L234A L235A, 2+1 TCB: LC1 (anti-GPRC5D), LC2 (anti-CD3 crossed), HC1 Fc hole, HC2 Fc knob) light 1: DIVMTQSPLSLPVTPGEPASISCRSSKSLLHSNGITYVYWYLQKPGQSPQLLIYRMSNRASGVPDRFSGSGSGTDFTLKISRVEAEDVGVYHCGQLLENPYTFGQGTKLEIKRTVAAPSVFIFPPSDRKLKSGTASVVCLLNNFYPREAKVQWKVDNALQSGNSQESVTEQDSKDSTYSLSSTLTLSKADYEKHKVYACEVTHQGLSSPVTKSFNRGEC light 2: EVQLLESGGGLVQPGGSLRLSCAASGFQFSSYAMNWVRQAPGKGLEWVSRIRSKYNNYATYYADSVKGRFTISRDDSKNTLYLQMNSLRAEDTAVYYCVRHTTFPSSYVSYYGYWGQGTLVTVSSASVAAPSVFIFPPSDEQLKSGTASVVCLLNNFYPREAKVQWKVDNALQSGNSQESVTEQDSKDSTYSLSSTLTLSKADYEKHKVYACEVTHQGLSSPVTKSFNRGEC heavy 1: EVQLVESGGGVVQPGRSLRLSCAASGFSFSNYGMAWVRQAPGKGLEWVASISTGGGNTYYRDSVKGRFTISRDNAKNTLYLQMNSLRAEDTAVYYCTRHDRGGLYWGQGTMVTVSSASTKGPSVFPLAPSSKSTSGGTAALGCLVEDYFPEPVTVSWNSGALTSGVHTFPAVLQSSGLYSLSSVVTVPSSSLGTQTYICNVNHKPSNTKVDEKVEPKSCDKTHTCPPCPAPEAAGGPSVFLFPPKPKDTLMISRTPEVTCVVVDVSHEDPEVKFNWYVDGVEVHNAKTKPREEQYNSTYRVVSVLTVLHQDWLNGKEYKCKVSNKALGAPIEKTISKAKGQPREPQVCTLPPSRDELTKNQVSLSCAVKGFYPSDIAVEWESNGQPENNYKTTPPVLDSDGSFFLVSKLTVDKSRWQQGNVFSCSVMHEALHNHYTQKSLSLSPGK heavy 2: not shown												778000	8.9	360	
5F11-TCB (bispecific antibody, human IgG1, kappa, L234A L235A, 2+1 anti-GPRC5D/anti-CD3 T cell bispecific: LC1 (GPRC5D), LC2 (CD3 crossed VH-CL), HC hole, HC knob; also called 5F11p-CH2527) light 1: DIVMTQAPLSVSVTPGESASISCRSSKSLLHSNGITYVYWYFQKPGKSPQVLIYRMSNLASGVPDRFSGSGSETDFTLKISRVEAEDVGIYHCGQLLENPYTFGAGTELELKRTVAAPSVFIFPPSDRKLKSGTASVVCLLNNFYPREAKVQWKVDNALQSGNSQESVTEQDSKDSTYSLSSTLTLSKADYEKHKVYACEVTHQGLSSPVTKSFNRGEC light 2: EVQLLESGGGLVQPGGSLRLSCAASGFTFSTYAMNWVRQAPGKGLEWVSRIRSKYNNYATYYADSVKGRFTISRDDSKNTLYLQMNSLRAEDTAVYYCVRHGNFGNSYVSWFAYWGQGTLVTVSSASVAAPSVFIFPPSDEQLKSGTASVVCLLNNFYPREAKVQWKVDNALQSGNSQESVTEQDSKDSTYSLSSTLTLSKADYEKHKVYACEVTHQGLSSPVTKSFNRGEC heavy 1: EVQLVESGGGLVQPGRSLKLSCAASGFSFSNYGMAWVRQAATKGLEWVASISTGGGNTYYRDSVKGRFIVSRDNAKNTQYLQMDSLRSEDTATYYCTRHDRGGLYWGQGVMVTVSSASTKGPSVFPLAPSSKSTSGGTAALGCLVEDYFPEPVTVSWNSGALTSGVHTFPAVLQSSGLYSLSSVVTVPSSSLGTQTYICNVNHKPSNTKVDEKVEPKSCDKTHTCPPCPAPEAAGGPSVFLFPPKPKDTLMISRTPEVTCVVVDVSHEDPEVKFNWYVDGVEVHNAKTKPREEQYNSTYRVVSVLTVLHQDWLNGKEYKCKVSNKALGAPIEKTISKAKGQPREPQVCTLPPSRDELTKNQVSLSCAVKGFYPSDIAVEWESNGQPENNYKTTPPVLDSDGSFFLVSKLTVDKSRWQQGNVFSCSVMHEALHNHYTQKSLSLSPGK heavy 2: not shown	3	1	1	2	6	3	3	1	4	1	6	393000	14	180	2310
5E11(VH1d + VL2a)-C122-TCB (P1AE6626) (bispecific antibody, human IgG1, kappa, L234A L235A, 2+1 TCB: LC1 (anti-GPRC5D), LC2 (anti-CD3 crossed), HC1 Fc hole, HC2 Fc knob) light 1: EIVLTQSPGTLSLSPGERATLSCRASQSVSISGINLMNWYQQKPGQQPRLLIYHASILASGIPDRFSGSGSGTDFTLTISRLEPEDFAVYYCQQTRESPLTFGQGTRLEIKRTVAAPSVFIFPPSDRKLKSGTASVVCLLNNFYPREAKVQWKVDNALQSGNSQESVTEQDSKDSTYSLSSTLTLSKADYEKHKVYACEVTHQGLSSPVTKSFNRGEC light 2: EVQLLESGGGLVQPGGSLRLSCAASGFQFSSYAMNWVRQAPGKGLEWVSRIRSKYNNYATYYADSVKGRFTISRDDSKNTLYLQMNSLRAEDTAVYYCVRHTTFPSSYVSYYGYWGQGTLVTVSSASVAAPSVFIFPPSDEQLKSGTASVVCLLNNFYPREAKVQWKVDNALQSGNSQESVTEQDSKDSTYSLSSTLTLSKADYEKHKVYACEVTHQGLSSPVTKSFNRGEC heavy 1: ELQLLESGGGLVQPGGSLRLSCAASGFTFSKYAMAWVRQAPGKGLEWVASISTGGVNTYYADSVKGRFTISRDNAKNTLYLQMNSLRAEDTAVYYCATHTGDYFDYWGQGTMVTVSSASTKGPSVFPLAPSSKSTSGGTAALGCLVEDYFPEPVTVSWNSGALTSGVHTFPAVLQSSGLYSLSSVVTVPSSSLGTQTYICNVNHKPSNTKVDEKVEPKSCDKTHTCPPCPAPEAAGGPSVFLFPPKPKDTLMISRTPEVTCVVVDVSHEDPEVKFNWYVDGVEVHNAKTKPREEQYNSTYRVVSVLTVLHQDWLNGKEYKCKVSNKALGAPIEKTISKAKGQPREPQVCTLPPSRDELTKNQVSLSCAVKGFYPSDIAVEWESNGQPENNYKTTPPVLDSDGSFFLVSKLTVDKSRWQQGNVFSCSVMHEALHNHYTQKSLSLSPGK heavy 2: not shown												582000	49.7	850	7800
